In US20240116985A1 (published 2024):
Starred links: 1 amine or outer side, 2 acyl side, 3 side chain; linkers in the order of their positions; H or OH if unused. Positions of bridges follow the written chain, without caps; N, C: chain ends. Non-standard residues stand in square brackets, D forms with d. Primed or numbered codes have the meaning given here. PyrS2″ = (S)-3-amino-1-((pent-4-en-1-yloxy)carbonyl)pyrrolidine-3-carboxylic acid (stapling residue), C=CCCCOC(=O)N1CC[C@@](N[*:1])(C(=O)[*:2])C1; B5(17) = 2,2-bis(4-pentenyl)glycine = 2-amino-2-(pent-4-en-1-yl)hept-6-enoic acid, stitching residue, C=CCCCC(CCCC=C)(N[*:1])C(=O)[*:2]; B5(4) = 2,2-bis(4-pentenyl)glycine = 2-amino-2-(pent-4-en-1-yl)hept-6-enoic acid (stitching residue), C=CCCCC(CCCC=C)(N[*:1])C(=O)[*:2]; PyrS4 = (S)-3-amino-1-((hept-6-en-1-yloxy)carbonyl)pyrrolidine-3-carboxylic acid, C=CCCCCCOC(=O)N1CC[C@@](N[*:1])(C(=O)[*:2])C1; B3 = 2-allyl-2-aminopent-4-enoic acid, C=CCC(CC=C)(N[*:1])C(=O)[*:2]; Phe(2-CONH2) = NC(=O)c1ccccc1C[C@H](N)C(=O)O; Bta = N[C@@H](Cc1csc2ccccc12)C(=O)O; Lys(iPr) = CC(C)NCCCC[C@H](N)C(=O)O; αAllylPro = C=CC[C@@]1(C(=O)O)CCCN1; tBuAla = CC(C)(C)C[C@H](N)C(=O)O; 3Thi = N[C@@H](Cc1ccsc1)C(=O)O; Cha = N[C@@H](CC1CCCCC1)C(=O)O; S8 = C=CCCCCCC[C@](C)(N)C(=O)O; hLeu = CC(C)CC[C@H](N)C(=O)O; hSer = N[C@@H](CCO)C(=O)O

B1: I-550 (peptide)
peptide: XDIXDDAAFNXFXQ
modifications: not fully specified; N-terminal Ac; PL3 at 1; B5 at 4; S8 at 11; 2OMeF at 12; BztA at 13; C-terminal NH2; staples PL3(1)-B5(4) and B5(4)-S8(11) by olefin metathesis

The binders below were run against T1, B-cat-Halo (beta-catenin HaloTag NanoBRET construct expressed in HEK293 cells) (UniProt P35222 1-781) (assay: cell-based or functional assay).
T1 sequence (looked up): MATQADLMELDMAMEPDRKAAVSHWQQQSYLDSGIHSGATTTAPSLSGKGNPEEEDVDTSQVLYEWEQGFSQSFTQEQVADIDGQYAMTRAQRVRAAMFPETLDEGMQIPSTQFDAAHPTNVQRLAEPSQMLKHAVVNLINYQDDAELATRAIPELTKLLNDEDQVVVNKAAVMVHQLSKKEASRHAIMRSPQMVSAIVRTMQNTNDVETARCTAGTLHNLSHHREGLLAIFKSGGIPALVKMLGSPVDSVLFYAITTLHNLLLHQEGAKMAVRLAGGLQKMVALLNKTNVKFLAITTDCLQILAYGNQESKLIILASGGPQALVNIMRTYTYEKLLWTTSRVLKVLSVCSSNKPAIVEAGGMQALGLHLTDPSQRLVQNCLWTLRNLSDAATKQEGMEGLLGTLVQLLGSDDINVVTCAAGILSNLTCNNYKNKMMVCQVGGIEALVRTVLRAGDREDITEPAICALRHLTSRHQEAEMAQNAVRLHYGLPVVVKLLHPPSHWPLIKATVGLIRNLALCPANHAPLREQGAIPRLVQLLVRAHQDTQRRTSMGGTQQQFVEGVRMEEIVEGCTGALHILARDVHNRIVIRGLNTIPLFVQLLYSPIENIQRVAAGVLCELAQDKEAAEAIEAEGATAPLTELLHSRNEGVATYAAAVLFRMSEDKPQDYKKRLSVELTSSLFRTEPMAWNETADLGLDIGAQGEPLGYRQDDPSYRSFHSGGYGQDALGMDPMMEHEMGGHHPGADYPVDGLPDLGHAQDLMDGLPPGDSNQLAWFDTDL

| Binder | NanoBRET Abs IC50 [µM] |
| --- | --- |
| Ac-[αAllylPro]D[tBuAla][B5(4)]DDAAFN[S8]F[Bta]Q-NH2 (staple 1-4, 4-11) [I-546] | 12.1 |
| B1 | 21.4 |
| Ac-[αAllylPro]DI[B5(17)]DEAAFN[S8]F[Bta]Q-NH2 (staple 1-4, 4-11) [I-557] | 16.9 |
| Ac-[αAllylPro]D[hLeu][B5(4)]DDAAFN[S8]F[Bta]Q-NH2 (staple 1-4, 4-11; not fully specified) [I-548] | 15.6 |
| Ac-[αAllylPro]D[hLeu][B5(4)]DEAAFQ[S8]F[Bta]Q-NH2 (staple 1-4, 4-11) [I-545] | 3.5 |

The binders below were run against T2, B-cat-Halo (beta-catenin HaloTag NanoBRET construct expressed in HEK293 cells) (UniProt P35222 1-781) (assay: cell-based or functional assay).
T2 sequence (looked up): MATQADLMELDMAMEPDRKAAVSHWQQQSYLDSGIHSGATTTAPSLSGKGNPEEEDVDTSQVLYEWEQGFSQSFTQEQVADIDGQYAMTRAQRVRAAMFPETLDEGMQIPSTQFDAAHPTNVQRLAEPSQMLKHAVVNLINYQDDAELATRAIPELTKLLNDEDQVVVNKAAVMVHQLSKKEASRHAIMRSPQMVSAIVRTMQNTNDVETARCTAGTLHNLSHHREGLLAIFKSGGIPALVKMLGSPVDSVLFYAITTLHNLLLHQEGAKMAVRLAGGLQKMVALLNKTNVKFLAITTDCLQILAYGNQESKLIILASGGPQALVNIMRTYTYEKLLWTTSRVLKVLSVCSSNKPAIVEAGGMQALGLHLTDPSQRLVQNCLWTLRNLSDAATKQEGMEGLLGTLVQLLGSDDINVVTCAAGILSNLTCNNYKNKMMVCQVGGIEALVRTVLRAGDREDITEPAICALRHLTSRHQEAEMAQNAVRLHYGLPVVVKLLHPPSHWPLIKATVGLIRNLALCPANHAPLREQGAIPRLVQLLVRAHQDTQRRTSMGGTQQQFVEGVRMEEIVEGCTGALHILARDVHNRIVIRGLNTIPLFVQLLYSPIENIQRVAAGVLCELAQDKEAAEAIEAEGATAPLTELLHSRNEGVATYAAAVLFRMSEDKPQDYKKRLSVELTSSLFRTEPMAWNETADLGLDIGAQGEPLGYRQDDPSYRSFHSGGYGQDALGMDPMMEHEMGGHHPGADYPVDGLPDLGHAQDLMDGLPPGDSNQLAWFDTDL

| Binder | NanoBRET Abs IC50 [µM] |
| --- | --- |
| Ac-[αAllylPro]N[Cha][B5(4)]DQ[Lys(iPr)]AFN[PyrS2″][Phe(2-CONH2)][Bta][hSer]-NH2 (staple 1-4, 4-11) [I-2168] | > 20 |
| Ac-[αAllylPro]D[tBuAla][B3]DDAAFL[PyrS4][3Thi][Bta]Q-NH2 (staple 1-4, 4-11; also: earlier eluting HPLC peak (staple isomer composition)) [I-2158] | > 20 |
| Ac-[αAllylPro]D[tBuAla][B3]DDAAFL[PyrS4][3Thi][Bta]Q-NH2 (staple 1-4, 4-11; also: later eluting HPLC peak (staple isomer composition)) [I-2159] | > 20 |

These binders were tested against T3, full-length beta-Catenin (Uniprot ID P35222) (Homo sapiens (Human), UniProt P35222 1-781) (assay: fluorescence polarization competition; full-length beta-catenin with 5FAM-labeled TCF4 residues 10-53 probe as competitor).
T3 construct: also called bCat; B-Catenin
T3 sequence: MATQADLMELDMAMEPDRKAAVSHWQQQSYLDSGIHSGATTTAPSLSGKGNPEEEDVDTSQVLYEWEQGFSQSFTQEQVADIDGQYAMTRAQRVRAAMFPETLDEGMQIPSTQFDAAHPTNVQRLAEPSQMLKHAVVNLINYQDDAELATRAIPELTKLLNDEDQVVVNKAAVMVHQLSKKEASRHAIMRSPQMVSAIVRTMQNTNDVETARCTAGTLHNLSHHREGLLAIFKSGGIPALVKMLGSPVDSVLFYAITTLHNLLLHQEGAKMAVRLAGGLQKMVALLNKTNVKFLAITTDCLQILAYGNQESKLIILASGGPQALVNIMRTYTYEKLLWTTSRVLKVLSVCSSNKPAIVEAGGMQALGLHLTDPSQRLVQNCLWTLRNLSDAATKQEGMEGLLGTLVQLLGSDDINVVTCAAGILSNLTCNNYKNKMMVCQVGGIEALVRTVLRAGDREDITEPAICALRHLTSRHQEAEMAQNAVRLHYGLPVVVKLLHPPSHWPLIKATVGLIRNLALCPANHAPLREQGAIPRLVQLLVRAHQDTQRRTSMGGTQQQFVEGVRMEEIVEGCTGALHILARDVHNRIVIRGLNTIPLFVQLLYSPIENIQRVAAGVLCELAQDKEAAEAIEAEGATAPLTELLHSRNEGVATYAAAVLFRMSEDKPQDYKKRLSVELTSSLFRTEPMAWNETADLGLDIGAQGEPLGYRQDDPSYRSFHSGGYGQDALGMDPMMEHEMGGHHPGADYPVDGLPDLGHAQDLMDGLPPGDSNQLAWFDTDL
Protocol: The plate was incubated protected from light for 60 minutes at 20° C. prior to read. Reads were performed on a CLARIOstar plate reader (BMG Labtech) in duplicate, and data were fitted to a 1:1 binding model with hill slope using an in-house script. All provided concentrations are final concentrations.

| Binder | IC50 [µM] |
| --- | --- |
| B1 | 0.03 |
| Ac-[αAllylPro]DI[B5(17)]DEAAFN[S8]F[Bta]Q-NH2 (staple 1-4, 4-11) [I-557] | 0.035 |
